According to patent US20190309079A1 (Regeneron, published 2019):

T1: human LEPR CRH1-Ig (D2,D3)-MMH (human, UniProt P48357 230-427, limits assumed)
T1 construct: domain: CRH1-Ig (D2,D3)
T1 sequence (looked up): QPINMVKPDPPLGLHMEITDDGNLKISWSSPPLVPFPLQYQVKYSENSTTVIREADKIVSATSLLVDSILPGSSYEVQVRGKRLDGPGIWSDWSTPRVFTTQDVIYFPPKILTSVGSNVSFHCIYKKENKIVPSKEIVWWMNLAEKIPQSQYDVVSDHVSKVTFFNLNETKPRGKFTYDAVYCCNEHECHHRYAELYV

T2: human LEPR Ig (D3)-MMH (human, UniProt P48357 340-427, limits assumed)
T2 construct: domain: Ig (D3)
T2 sequence (looked up): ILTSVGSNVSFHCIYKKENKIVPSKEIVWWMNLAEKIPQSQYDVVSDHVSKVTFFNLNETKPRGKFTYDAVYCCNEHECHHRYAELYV

B1: H4H18487P2 (antibody, V domains shown)
VH: QVQLQESGPGLVKPSETLSLTCTVSGGSISNSYWSWIRQPPGKGLEWIGYVYSRGNTKYNPSLTSRVTMSFDTSKNQFSLKLRSVTAADTAVYYCARSSSWYEDWYFDLWGRGTLVTVSS
VL: not shown
B2: H4H18492P2 (antibody, V domains shown)
VH: QVQLQQWGAGLFKPSETLSLTCDVYGGSFRGYYWSWIRQPPGKGLEWIGEISYSGFTNYNPSLKSRVIISIDTSKNQFSLKMSSVTAADTAVYYCARVTYGYGTFDYWGQGTLVTVSS
VL: not shown
B3: H4H18482P2 (antibody, human IgG4, V domains shown)
VH: QVQLQESGPGLVKPSQTLSLTCTVSGGSISSGNYYWNWIRQQPGEGLEWIAYIYHNGVTNFNPSLKSRLTISVDTSKTQFSLKLRSVTAADTAVYYCARSGSWFENWYFDLWGRGTLVTVSS
VL: not shown
notes: human IgG4 Fc

Legend:
[1] = target: T1, human LEPR CRH1-Ig (D2,D3)-MMH; test: Luminex, myc-captured protein on beads
Method: (§1) Aliquots of microspheres with immobilized anti-myc monoclonal antibodies, prepared as described above, were added individually to 1 mL of the each of these protein supernatants. The microspheres were gently mixed, incubated for two hours at 25° C., washed twice with 1 mL of DBPS, centrifuged to remove the supernatant and finally resuspended in 1 mL of DPBS buffer. […] of anti-myc IgG coupled microspheres from individual reactions with full length human LEPR and with each of the human LEPR domain proteins were withdrawn and mixed together in 3.6 mL of PBS+20 mg/mL BSA+0.05% sodium azide (blocking buffer).
(§2) From this mixed pool, 75 μL of microspheres were plated per well on a 96 well filter plate (Millipore, Cat. No: MSBVN1250) and mixed with 25 μL of individual anti-human LEPR monoclonal antibodies (0.5 or 5 μg/mL), incubated for two hours at 25° C. and then washed twice with 200 μL of DPBS with 0.05% Tween 20 (washing buffer). […] After 30 minutes, the samples were washed twice with 200 µL of washing buffer and resuspended in 150 μL of wash buffer. The Median Fluorescence intensity (MFI) of the microspheres was measured in a Luminex Analyzer.

[2] = target: T2, human LEPR Ig (D3)-MMH; test: Luminex, myc-captured protein on beads
Method: as §1, §2

Row | Binder | Luminex MFI [1] | Luminex MFI [2]
1 | B1 | 62 MFI | 22 MFI
2 | B2 | 8680 MFI | 19 MFI
3 | B3 | – | 27 MFI
